For 3 molecules, binding result and Kd results are on record in paper PMC10094033, “pilE G-Quadruplex Is Recognized and Preferentially Bound but Not Processed by the MutL Endonuclease from Neisseria gonorrhoeae Mismatch Repair Pathway”.

The target in series [1] is T1, ngMutL (Neisseria gonorrhoeae, UniProt Q5F8M6 1-658).
T1 sequence: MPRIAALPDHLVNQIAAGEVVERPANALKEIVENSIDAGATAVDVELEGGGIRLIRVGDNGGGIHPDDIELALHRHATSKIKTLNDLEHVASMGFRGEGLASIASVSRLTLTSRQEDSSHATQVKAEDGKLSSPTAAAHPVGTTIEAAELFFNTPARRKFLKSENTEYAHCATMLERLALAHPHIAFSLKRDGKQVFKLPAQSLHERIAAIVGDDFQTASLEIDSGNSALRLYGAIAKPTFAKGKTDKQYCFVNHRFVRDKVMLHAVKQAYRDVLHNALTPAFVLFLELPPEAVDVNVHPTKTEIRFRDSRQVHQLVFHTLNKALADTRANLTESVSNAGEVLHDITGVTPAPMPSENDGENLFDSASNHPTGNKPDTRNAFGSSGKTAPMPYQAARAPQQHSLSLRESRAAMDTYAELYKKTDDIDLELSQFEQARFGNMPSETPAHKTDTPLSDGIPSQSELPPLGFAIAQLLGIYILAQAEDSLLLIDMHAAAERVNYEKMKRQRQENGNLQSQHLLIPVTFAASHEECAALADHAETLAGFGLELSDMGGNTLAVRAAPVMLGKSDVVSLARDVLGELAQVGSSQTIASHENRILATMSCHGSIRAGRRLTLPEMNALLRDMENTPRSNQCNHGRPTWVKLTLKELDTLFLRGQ
Briefly: EMSA; increasing ATP; binding not significantly reduced by ATP; 20 mM HEPES pH 8.0, 100 mM KCl, 0.5 mg/mL BSA, 1 mM DTT, 20 nM DNA, 15-1000 nM ngMutL dimer, 10 min on ice; 6% native PAGE in TAE at 4 C. To be noted: protein: recombinant; tags: N-terminal His6; chain copies: 2; label: 3'-TAMRA on strand 1; duplex with unpaired G4 insert in strand 1, blunt ends. A general note: A gel shift assay detects complexes by their altered migration in electrophoresis.

The target of series [2] is T1, ngMutL. Briefly: EMSA; apparent Kd, per dimer; no ATP; 20 mM HEPES pH 8.0, 100 mM KCl, 0.5 mg/mL BSA, 1 mM DTT, 20 nM DNA, 15-1000 nM ngMutL dimer, 10 min on ice; 6% native PAGE in TAE at 4 C. Particulars: protein: recombinant, tags: N-terminal His6, chain copies: 2, label: 3'-TAMRA on strand 1, blunt.

B1: 95G4/76M (mixed)
DNA 1: ATAGGACGCTGACACTGGTGCTTGGCAGCTGAGCCATATTTGGGTGGGTGGGTGGGTTGCTCGAGTAACGCTCATAGGATCCAAGCGCGAAAGGA
DNA 2: TCCTTTCGCGCTTGGATCCTATGAGCGTTACTCGAGCATATGGCTCAGCTGCCAAGCACCAGTGTCAGCGTCCTAT
Consider B1, for which the binding result with ngMutL [1] is given as “binds”.

B2: 41pilG4/41M (dsDNA)
DNA 1: ACGCGTTAGAATAGGGTGGGTTGGGTGGGGAATTTTCTATT
DNA 2: AATAGAAAATTCCCCACCCAACCCACCCTATTCTAACGCGT
Turning to B2, the Kd with ngMutL [2] (G4 may be partially preserved by CD) amounted to 650 nM.

B3: 95pilG4/95M (dsDNA)
DNA 1: GTCGGAATTTGAGATTTTTGAATTTACGCGTTAGAATAGGGTGGGTTGGGTGGGGAATTTTCTATTTTTTAAAAAGCTCCGTTTTCTTGGAAAGC
DNA 2: GCTTTCCAAGAAAACGGAGCTTTTTAAAAAATAGAAAATTCCCCACCCAACCCACCCTATTCTAACGCGTAAATTCAAAAATCTCAAATTCCGAC
In the case of B3, in the series with ngMutL [2], the Kd came out at 123 nM.
